Assay results reported in publication PMC3320033 (Virology, 2012).

B1: Sf6 portal protein (gp3) (natural protein, bacteriophage Sf6, UniProt Q716H2 1-708, looked up)
chain: MAETLEKKHERIMLRFDRAYSPQKEVREKCIEATRFARVPGGQWEGATAAGTKLDEQFEKYPKFEINKVATELNRIIAEYRNNRITVKFRPGDREASEELANKLNGLFRADYEETDGGEACDNAFDDAATGGFGCFRLTSMLVNEYDPMDDRQRIAIEPIYDPSRSVWFDPDAKKYDKSDALWAFCMYSLSPEKYEAEYGKKPPTSLDVTSMTSWEYNWFGADVIYIAKYYEVRKESVDVISYRHPITGEIATYDSDQVEDIEDELAIAGFHEVARRSVKRRRVYVSVVDGDGFLEKPRRIPGEHIPLIPVYGKRWFIDDIERVEGHIAKAMDPQRLYNLQVSMLADTAAQDPGQIPIVGMEQIRGLEKHWEARNKKRPAFLPLREVRDKSGNIIAGATPAGYTQPAVMNQALAALLQQTSADIQEVTGGSQAMQQMPSNIAQETVNNLMNRADMASFIYLDNMAKSLKRAGEVWLSMAREVYGSEREVRIVNEDGSDDIAVLSAQVVDRQTGAVVALNDLSVGRYDVTVDVGPSYTARRDATVSVLTNVLSSMLPTDPMRPAIQGIILDNIDGEGLDDFKEYNRNQLLISGIAKPRNEKEQQIVQQAQMAAQSQPNPEMVLAQAQMVAAQAEAQKATNETAQTQIKAFTAQQDAMESQANTVYKLAQARNIDDKAVMEAIRLLKDVAESQQQQFQSPPQSPADLMPS
B2: Sf6 tail plug protein gp7 (natural protein, bacteriophage Sf6, UniProt Q716G8 1-160, looked up)
chain: MATVLTKGEIVLFALRKFAIASNASLTDVEPQSIEDGVNDLEDMMSEWMINPGDIGYAFATGDEQPLPDDESGLPRKYKHAVGYQLLLRMLSDYSLEPTPQVLSNAQRSYDALMTDTLVVPSMRRRGDFPVGQGNKYDVFTSDRYYPGDLPLIDGDIPNA
B3: Sf6 tail plug protein gp8 (natural protein, bacteriophage Sf6, UniProt Q716G7 1-472, looked up)
chain: MPIQQLPLMKGVGKDFRNADYIDYLPVNMLATPKEILNSSGYLRSFPGIAKRSDVNGVSRGVEYNMAQNAVYRVCGGKLYKGESEVGDVAGSGRVSMAHGRTSQAVGVNGQLVEYRYDGTVKTVSNWPTDSGFTQYELGSVRDITRLRGRYAWSKDGTDSWFITDLEDESHPDRYSAQYRAESQPDGIIGIGTWRDFIVCFGSSTIEYFSLTGATTAGAALYVAQPSLMVQKGIAGTYCKTPFADSYAFISNPATGAPSVYIIGSGQVSPIASASIEKILRSYTADELADGVMESLRFDAHELLIIHLPRHVLVYDASSSANGPQWCVLKTGLYDDVYRAIDFIYEGNQITCGDKLESVTGKLQFDISSQYGLQQEHLLFTPLFKADNARCFDLEVESSTGVAQYADRLFLSATTDGINYGREQMIEQNEPFVYDKRVLWKRVGRIRKNVGFKLRVITKSPVTLSGAQIRIE
B4: Sf6 tail needle (gp9) (natural protein, bacteriophage Sf6, UniProt Q716G6 1-282, looked up)
chain: MADSNLNVPVIIQATRLDTSVLPRNIFSQSYLLYVIAQGTDVGNVANKANEAGQGAYDAQVRNDEQDVILADHEQRISAAEATLVNHEERIRQAESTLQDHETRIAQNESDISSLDTRVQSLESQVSDHETRIDALEYATTRKKSEVVYSGVSVTIPTAPTNLVSLLKTLTPSSGTLAPFFDTVNNKMVVFNENKTLFFKLSIVGTWPSGTANRSMQLTFSGSVPDTLVSSRNSATTTDNILLATFFSVDKDGFLATNGSTLTIQSNGASFTATTIKIIAEQ

Molecular target: the molecule itself
Test: cryo-EM structure

B1 and B2 are the same in “stoichiometry N” value: 12 for the first, 12 for the second.

Going from B3 to B4, the “stoichiometry N” value falls from 6 to 3.
